# Biological target: ATP binding cassette protein E1 (ABCE1), endogenous in 293T/17 cells (human (endogenous in 293T/17)) (UniProt P61221)
# Experiment: proximity ligation
substance,measurement,value
"FIV Gag, wild type, expressed from the FIV pro- env- provirus (natural protein)",Gag-ABCE1 PLA spots per cell (PLA spots per cell),34.9

# — doi:10.1101/183848
